US20110206658A1 (published 2011)

B1: anti-cyno CD79b (10D10)-SMCC-DM1 (antibody, V domains shown)
VH: EVQLQESGPGLVKPSQSLSLTCTVTGYSITSDYAWNWIRQFPGNKLEWMGNIWYSGSTTYNPSLKSRISITRDTSKNQFFLQLNSVTSEDTATYYCSRMDFWGQGTTLTVSS
VL: DIVLTQSPPSLAVSLGQRATISCRASESVDSYGKTFMHWHQQKPGQPPKLLIYRVSNLESGIPARFSGSGSRTDFTLTINPVEADDVATYYCQQSNEDPFTFGGGTKLEIKR
modifications: DM1 linked through SMCC to the epsilon-amino group of lysines; drug to antibody ratio typically 3 to 4
B2: anti-cyno CD79b (10D10)-MC-MMAF (antibody, V domains shown)
VH: B1 VH
VL: B1 VL
modifications: MMAF linked through the cysteine by the maleimidocaproyl (MC) linker; sites and load not stated

Columns and labels:
[1] = target: T1, cynomolgus CD79b (TAHO40) (cynomolgus monkey); assay: cell-based or functional assay
T1 chain: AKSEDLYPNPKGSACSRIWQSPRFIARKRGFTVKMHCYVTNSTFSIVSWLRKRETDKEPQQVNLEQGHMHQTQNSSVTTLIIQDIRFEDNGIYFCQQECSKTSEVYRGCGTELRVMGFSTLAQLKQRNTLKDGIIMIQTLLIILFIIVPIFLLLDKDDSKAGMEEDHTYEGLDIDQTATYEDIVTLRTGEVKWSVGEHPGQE

[2] = target: T2, human CD79b (TAHO5) (human, UniProt P40259 29-229); assay: cell-based or functional assay
T2 sequence: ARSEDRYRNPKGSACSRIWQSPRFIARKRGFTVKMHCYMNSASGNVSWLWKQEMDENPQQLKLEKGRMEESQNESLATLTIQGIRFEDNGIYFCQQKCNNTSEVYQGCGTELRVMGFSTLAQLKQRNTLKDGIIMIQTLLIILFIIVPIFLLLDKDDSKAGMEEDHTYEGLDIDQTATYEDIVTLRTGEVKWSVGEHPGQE

Binder	IC50 of tumor cell killing (CellTiter-Glo), BJAB-cyno CD79b cells [1] [nM]	IC50 of tumor cell killing (CellTiter-Glo), non-transfected BJAB cells [2] [nM]
B1	0.33	10
B2	0.07	694
